One block for each binder: values may come before it. Starred links: 1 amine or outer side, 2 acyl side, 3 side chain; linkers in the order of their positions; H or OH if unused. Positions of bridges follow the written chain, without caps; N, C: chain ends. Non-standard residues stand in square brackets, D forms with d. Primed or numbered codes have the meaning given here. No end group written: not given here. (CH2CMe2CO2H)TriAzDap = (S)-3-(1-(2-amino-2-carboxyethyl)-1H-1,2,3-triazol-4-yl)-2,2-dimethylpropanoic acid, CC(C)(Cc1cn(C[C@H](N[*:1])C(=O)[*:2])nn1)C(=O)[*:3]; (CMe2CO2H)TriAzDap = (S)-2-amino-3-(4-(2-carboxypropan-2-yl)-1H-1,2,3-triazol-1-yl)propanoic acid, CC(C)(C(=O)[*:3])c1cn(C[C@H](N[*:1])C(=O)[*:2])nn1; PyrS2″ = (S)-3-amino-1-((pent-4-en-1-yloxy)carbonyl)pyrrolidine-3-carboxylic acid (stapling residue), C=CCCCOC(=O)N1CC[C@@](N[*:1])(C(=O)[*:2])C1; (CH2CH2CO2H)TriAzDap = (S)-2-amino-3-(4-(2-carboxyethyl)-1H-1,2,3-triazol-1-yl)propanoic acid, O=C([C@H](Cn1cc(CCC(=O)[*:3])nn1)N[*:1])[*:2]; B5(4) = 2,2-bis(4-pentenyl)glycine = 2-amino-2-(pent-4-en-1-yl)hept-6-enoic acid (stitching residue), C=CCCCC(CCCC=C)(N[*:1])C(=O)[*:2]; B5(5) = 2,2-bis(4-pentenyl)glycine, 2-amino-2-(pent-4-en-1-yl)hept-6-enoic acid (stitching residue), C=CCCCC(CCCC=C)(N[*:1])C(=O)[*:2]; TfeGA = (S)-2-amino-3-((carboxymethyl)(2,2,2-trifluoroethyl)amino)propanoic acid, O=C([C@H](CN(CC(=O)[*:3])CC(F)(F)F)N[*:1])[*:2]; PyrS2 = (S)-3-amino-1-((pent-4-en-1-yloxy)carbonyl)pyrrolidine-3-carboxylic acid, C=CCCCOC(=O)N1CC[C@@](N[*:1])(C(=O)[*:2])C1; PyrS2(5) = (S)-3-amino-1-((alkenyloxy)carbonyl)pyrrolidine-3-carboxylic acid, carbamate stapling residue; 2COOHF = (S)-2-(2-amino-2-carboxyethyl)benzoic acid, O=C([C@H](Cc1ccccc1C(=O)[*:3])N[*:1])[*:2]; 2F3MeF = Cc1cccc(C[C@H](N[*:1])C(=O)[*:2])c1F; Phe(2-CF3) = N[C@@H](Cc1ccccc1C(F)(F)F)C(=O)O; Phe(2-Cl) = N[C@@H](Cc1ccccc1Cl)C(=O)O; 1Nal = N[C@@H](Cc1cccc2ccccc12)C(=O)O; 2Nal = N[C@@H](Cc1ccc2ccccc2c1)C(=O)O; Bta = N[C@@H](Cc1csc2ccccc12)C(=O)O; αAllylPro = C=CC[C@@]1(C(=O)O)CCCN1; tBuAla = CC(C)(C)C[C@H](N)C(=O)O; 3Thi = N[C@@H](Cc1ccsc1)C(=O)O; S8 = C=CCCCCCC[C@](C)(N)C(=O)O; Thr(ol) = C[C@@H](O)[C@H](N)CO
Legend:
Bcat-Halo [1] = molecular target: Bcat-Halo (UniProt P35222); assay: NanoBRET Abs IC50, HEK293 cells, B-cat-Halo / TCF4-Luc engagement
[2] = molecular target: full-length beta-Catenin (Uniprot ID P35222) (Homo sapiens (Human)) (UniProt P35222); assay: fluorescence polarization competition against 5FAM-TCF4 10-53 on full-length beta-catenin
Target sequence in this assay (P35222 whole entry, one chain of several): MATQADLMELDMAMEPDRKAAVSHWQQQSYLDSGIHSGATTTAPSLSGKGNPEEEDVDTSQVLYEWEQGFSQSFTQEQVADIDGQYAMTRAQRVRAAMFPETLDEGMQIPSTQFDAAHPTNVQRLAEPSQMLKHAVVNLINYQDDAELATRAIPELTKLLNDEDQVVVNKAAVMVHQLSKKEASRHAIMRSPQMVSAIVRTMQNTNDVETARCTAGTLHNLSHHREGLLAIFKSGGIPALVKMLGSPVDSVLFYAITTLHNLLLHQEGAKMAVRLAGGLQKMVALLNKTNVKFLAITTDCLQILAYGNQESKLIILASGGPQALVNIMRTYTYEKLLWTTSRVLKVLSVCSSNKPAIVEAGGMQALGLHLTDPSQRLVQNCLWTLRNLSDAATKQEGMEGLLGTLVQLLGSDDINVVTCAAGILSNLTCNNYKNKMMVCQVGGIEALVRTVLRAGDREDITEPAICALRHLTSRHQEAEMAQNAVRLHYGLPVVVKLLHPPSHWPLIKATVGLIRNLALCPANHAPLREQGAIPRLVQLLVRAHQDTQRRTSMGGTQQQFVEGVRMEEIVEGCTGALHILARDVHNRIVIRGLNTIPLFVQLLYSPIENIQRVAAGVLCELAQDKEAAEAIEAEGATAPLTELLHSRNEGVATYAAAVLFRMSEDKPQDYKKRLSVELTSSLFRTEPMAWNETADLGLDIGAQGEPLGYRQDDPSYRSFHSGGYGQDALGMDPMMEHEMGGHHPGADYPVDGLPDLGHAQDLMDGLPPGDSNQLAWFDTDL

Bcat-Halo [3] = molecular target: Bcat-Halo (UniProt P35222); assay: NanoBRET Abs IC50, HEK293 cells; B-cat-Halo/TCF4-Luc engagement, competitor TCF4-Luc
[4] = molecular target: full-length beta-Catenin (Uniprot ID P35222) (Homo sapiens (Human)) (UniProt P35222); assay: FP competition; full-length beta-catenin, competitor 5FAM-TCF4(10-53)
Target sequence in this assay (P35222 whole entry, one chain of several): as above

[5] = molecular target: full-length beta-Catenin (Uniprot ID P35222) (Homo sapiens (Human)) (UniProt P35222); assay: fluorescence polarization competition; full-length beta-catenin with 5FAM-TCF4(10-53) probe as competitor
Target sequence in this assay (P35222 2-781 limits assumed): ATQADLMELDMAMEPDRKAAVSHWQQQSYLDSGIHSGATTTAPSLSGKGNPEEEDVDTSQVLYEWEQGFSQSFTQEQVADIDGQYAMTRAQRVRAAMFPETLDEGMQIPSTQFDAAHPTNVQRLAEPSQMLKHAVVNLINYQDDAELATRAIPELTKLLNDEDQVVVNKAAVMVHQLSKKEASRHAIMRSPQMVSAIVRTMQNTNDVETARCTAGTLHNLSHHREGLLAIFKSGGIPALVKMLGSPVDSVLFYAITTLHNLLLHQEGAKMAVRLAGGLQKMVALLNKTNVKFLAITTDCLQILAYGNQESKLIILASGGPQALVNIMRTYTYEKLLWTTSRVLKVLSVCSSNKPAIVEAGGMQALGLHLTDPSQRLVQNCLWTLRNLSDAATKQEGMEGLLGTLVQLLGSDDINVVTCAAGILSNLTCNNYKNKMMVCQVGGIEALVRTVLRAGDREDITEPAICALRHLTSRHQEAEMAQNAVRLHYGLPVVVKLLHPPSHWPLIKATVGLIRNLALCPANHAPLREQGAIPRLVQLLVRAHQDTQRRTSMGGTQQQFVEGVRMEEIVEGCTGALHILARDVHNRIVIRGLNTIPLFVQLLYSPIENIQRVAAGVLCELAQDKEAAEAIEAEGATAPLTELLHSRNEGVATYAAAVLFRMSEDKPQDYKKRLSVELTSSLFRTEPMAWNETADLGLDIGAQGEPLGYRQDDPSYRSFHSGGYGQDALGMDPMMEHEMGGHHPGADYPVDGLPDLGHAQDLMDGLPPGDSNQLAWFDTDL

[6] = molecular target: B-cat-Halo (beta-catenin HaloTag NanoBRET construct expressed in HEK293 cells) (UniProt P35222); assay: NanoBRET Abs IC50 in HEK293 cells; Bcat-Halo, TCF4-Luc as competitor
[7] = molecular target: full-length beta-Catenin (Uniprot ID P35222) (Homo sapiens (Human)) (UniProt P35222); assay: fluorescence polarization competition; full-length beta-catenin, 5FAM-TCF4(10-53) probe as competitor
Target sequence in this assay (P35222 2-781 limits assumed): as above

[8] = molecular target: full-length beta-Catenin (Uniprot ID P35222) (Homo sapiens (Human)) (UniProt P35222); assay: FP competition: displacement of 5FAM-TCF4(10-53) from full-length beta-catenin
Target sequence in this assay (P35222 whole entry, one chain of several): as the sequence (P35222 whole entry, one chain of several) above

[9] = molecular target: full-length beta-Catenin (Uniprot ID P35222) (Homo sapiens (Human)) (UniProt P35222); assay: fluorescence polarization competition; full-length beta-catenin, 5FAM-TCF4(10-53) probe
Target sequence in this assay (P35222 whole entry, one chain of several): as above

[10] = molecular target: B-cat-Halo (NanoBRET construct) (UniProt P35222); assay: NanoBRET Abs IC50; Bcat-Halo/TCF4-Luc in HEK293 cells, competitor TCF4-Luc
Bcat-Halo [11] = molecular target: Bcat-Halo (UniProt P35222); assay: NanoBRET in HEK293 cells, Bcat-Halo / TCF4-Luc; absolute IC50
[12] = molecular target: full-length beta-Catenin (Uniprot ID P35222) (Homo sapiens (Human)) (UniProt P35222); assay: fluorescence polarization competition; 10 nM full-length beta-catenin, 10 nM 5FAM-TCF4(10-53) probe
Target sequence in this assay (P35222 2-781 limits assumed): as the sequence (P35222 2-781 limits assumed) above

[13] = molecular target: full-length beta-Catenin (Uniprot ID P35222) (Homo sapiens (Human)) (UniProt P35222); assay: AlphaScreen competition vs biotin-TCF4(10-53) on full-length beta-catenin
Target sequence in this assay (P35222 whole entry, one chain of several): as the sequence (P35222 whole entry, one chain of several) above

Bcat-Halo, sequence (P35222 whole entry): as the sequence (P35222 whole entry, one chain of several) above
B-cat-Halo (NanoBRET construct), sequence (P35222 whole entry): as the sequence (P35222 whole entry, one chain of several) above
B-cat-Halo (beta-catenin HaloTag NanoBRET construct expressed in HEK293 cells), sequence (P35222 whole entry): as the sequence (P35222 whole entry, one chain of several) above

- IC50 (Bcat-Halo [1]): 9500 nM
- IC50 [2]: 14 nM
B1: I-2369 (peptide)
peptide: Ac-[αAllylPro]D[tBuAla][B5(4)]D[(CMe2CO2H)TriAzDap]QAFL[PyrS2″][Phe(2-CF3)][Bta]A-NH2
modifications: staple 1-4, 4-11

- IC50 (Bcat-Halo [3]): 33600 nM
- EC50 [4]: 10 nM
- IC50 [5]: 10 nM
B2: I-1357 (peptide)
peptide: [αAllylPro]D[tBuAla][B5(4)]DDAAFS[PyrS2″]F[Bta]S-NH2
modifications: staple 1-4, 4-11

- IC50 [6]: 15700 nM
- IC50 [7]: 19 nM
- EC50 [8]: 19 nM
B3: I-1241 (peptide)
peptide: Ac-[αAllylPro]D[tBuAla][B5(4)]D[TfeGA]AAFT[PyrS2″][Phe(2-Cl)][Bta][Thr(ol)]
modifications: staple 1-4, 4-11

- IC50 [9]: 22 nM
- IC50 [10]: 8000 nM
B4: I-1664 (peptide)
peptide: Ac-[αAllylPro]D[tBuAla][B5(5)]D[2COOHF]AAFF[PyrS2″][3Thi][Bta]S-NH2
modifications: staple 1-4, 4-11

- IC50 [9]: 69 nM
- IC50 [10]: 12000 nM
B5: I-1662 (peptide)
peptide: Ac-[αAllylPro]D[tBuAla][B5(5)]D[2COOHF]AAFF[PyrS2″][Phe(2-Cl)][Bta]S-NH2
modifications: staple 1-4, 4-11

- IC50 (Bcat-Halo [1]): 5000 nM
- IC50 [2]: 5 nM
B6: I-2368 (peptide)
peptide: Ac-[αAllylPro]D[tBuAla][B5(4)]D[(CH2CMe2CO2H)TriAzDap]QAFL[PyrS2″][Phe(2-CF3)][Bta]A-NH2
modifications: staple 1-4, 4-11

- IC50 [9]: 17 nM
- IC50 [10]: 9700 nM
B7: I-1665 (peptide)
peptide: Ac-[αAllylPro]D[tBuAla][B5(5)]D[2COOHF]AAFF[PyrS2″][3Thi][Bta]S-NH2
modifications: staple 1-4, 4-11

- IC50 (Bcat-Halo [3]): 5500 nM
- EC50 [4]: 9 nM
- IC50 [5]: 9 nM
B8: I-1363 (peptide)
peptide: Ac-[αAllylPro]D[tBuAla][B5(4)]DDAAF[Phe(2-CF3)][PyrS2][3Thi][Bta]Q-NH2
modifications: staple 1-4, 4-11

- IC50 [9]: 30 nM
- IC50 [10]: 11800 nM
B9: I-1669 (peptide)
peptide: Ac-[αAllylPro]D[tBuAla][B5(5)]D[2COOHF]AAFF[PyrS2(5)][3Thi][Bta][Thr(ol)]
modifications: staple 1-4, 4-11; also: staple isomer, later-eluting HPLC peak

- IC50 [6]: 43300 nM
- IC50 [7]: 31 nM
- EC50 [8]: 31 nM
B10: I-1232 (peptide)
peptide: Ac-[αAllylPro]D[tBuAla][B5(5)]DDAAFT[PyrS2″][3Thi][1Nal]Q-NH2
modifications: staple 1-4, 4-11

- IC50 (Bcat-Halo [1]): 6200 nM
- IC50 [2]: 7 nM
B11: I-2367 (peptide)
peptide: Ac-[αAllylPro]D[tBuAla][B5(4)]D[(CH2CH2CO2H)TriAzDap]QAFL[PyrS2″][Phe(2-CF3)][Bta]A-NH2
modifications: staple 1-4, 4-11

- IC50 (Bcat-Halo [11]): 11400 nM
- IC50 [12]: 108 nM
B12: I-1659 (peptide)
peptide: Ac-[αAllylPro]D[tBuAla][B5(5)]D[2COOHF]AAFF[PyrS2″][2F3MeF][Bta]S-NH2
modifications: staple 1-4, 4-11

- EC50 [13]: 5810 nM
B13: I-297 (peptide)
peptide: Ac-[αAllylPro]DA[B5(4)]D[2Nal]AAFV[S8]F[Bta]Q-NH2
modifications: staple 1-4, 4-11
